Data reported in patent publication US5656591.

Biological target: commercial lactoferrin just as isolated from cow's milk (cow (bovine)) (UniProt P24627)

commercial swine pepsin (from UniProt P00791) (enzyme)
hydrolyzing rate: 11.3%
